From the supplement of paper PMC10724198
± gives the standard deviation of the averaged measurements.

Legend:
[1] = tested on: Saccharomyces cerevisiae; experiment: protein stability index of tFT-peptide fusion (C-terminal peptide) (PSI (0-1 scale)); higher = more stable (slower turnover)
Method: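 MPS profiling in S. cerevisiae of the tFT-X12 degron library: putative degron peptides plus stable controls, 12 aa, fused to the C-terminus of a sfGFP-mCherry timer. Cells are FACS-sorted into 8 mCherry/sfGFP bins and deep-sequenced. PSI runs from 0 (unstable) to 1 (stable). Backgrounds are wild type, das1Δ and doa10Δ at 30 °C, and wild type, das1Δ, cdc34-1 and cdc53-1 at 37 °C; 2-3 technical replicates each.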

[2] = tested on: Saccharomyces cerevisiae; experiment: as above; details: genetic background: wild type; temperature: 30 C
[3] = genetic background: cdc34-1, temperature: 37 C
[4] = genetic background: cdc53-1, temperature: 37 C
[5] = genetic background: das1 deletion, temperature: 30 C
[6] = genetic background: das1 deletion, temperature: 37 C
[7] = genetic background: doa10 deletion, temperature: 30 C
[8] = genetic background: wild type, temperature: 30 C
[9] = genetic background: wild type, temperature: 37 C
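Also: PSI is a weighted mean of sequencing reads over stability bins, variants kept only with over 10 reads, mCherry proximal and sfGFP distal, peptide attached via GGGS linker.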

Row | Sequence | protein stability index [1, 3] | protein stability index [1, 4] | protein stability index [1, 5] | protein stability index [1, 6] | protein stability index [1, 7] | protein stability index [1, 8] | protein stability index [1, 9] | protein stability index [2]
1 | SFWLGVGIFFVG | 0.544 ± 0.038 | 0.597 ± 0.022 | 0.434 ± 0.028 | 0.618 ± 0.028 | 0.405 ± 0.013 | 0.419 ± 0.023 | 0.559 ± 0.015 | 0.481 ± 0.021
2 | SFYVWILLWSYY | 0.26 ± 0.0071 | 0.256 ± 0.012 | 0.252 ± 0.023 | 0.384 ± 0.032 | 0.223 ± 0.015 | 0.214 ± 0.024 | 0.323 ± 0.014 | 0.294 ± 0.021
3 | SGGRFVLFIIAV | 0.444 ± 0.012 | 0.538 ± 0.048 | 0.376 ± 0.031 | 0.582 ± 0.013 | 0.344 ± 0.022 | 0.37 ± 0.023 | 0.535 ± 0.0051 | 0.42491 ± 0.00036
4 | SGVHWFRGNSWG | 0.697 ± 0.00077 | 0.749 ± 0.012 | 0.653 ± 0.0093 | 0.74 ± 0.027 | 0.657 ± 0.0087 | 0.646 ± 0.013 | 0.716 ± 0.036 | 0.712 ± 0.0087
5 | SHGKDVLNKINS | 0.608 ± 0.019 | 0.763 ± 0.045 | 0.633 ± 0.025 | 0.72 ± 0.033 | 0.146 ± 0.0078 | 0.17 ± 0.013 | 0.23 ± 0.036 | 0.319 ± 0.077
6 | SHTRPPVTAPLH | 0.689 ± 0.026 | 0.7142 ± 0.0027 | 0.646 ± 0.0068 | 0.72895 ± 0.00039 | 0.668 ± 0.033 | 0.654 ± 0.014 | 0.695 ± 0.0075 | 0.7165 ± 0.0055
7 | SIFSIFFLVRNF | 0.4535 ± 0.0038 | 0.551 ± 0.029 | 0.436 ± 0.037 | 0.59 ± 0.023 | 0.117 ± 0.0077 | 0.12 ± 0.039 | 0.195 ± 0.028 | 0.217 ± 0.0043
8 | SIFSIRRQISFS | 0.662 ± 0.0077 | 0.743 ± 0.009 | 0.653 ± 0.017 | 0.724 ± 0.012 | 0.327 ± 0.0085 | 0.346 ± 0.014 | 0.5729 ± 0.0022 | 0.418 ± 0.015
9 | SILVLGRSVGVG | 0.436 ± 0.026 | 0.4817 ± 0.00055 | 0.44 ± 0.027 | 0.521 ± 0.023 | 0.451 ± 0.0099 | 0.442 ± 0.01 | 0.49 ± 0.018 | 0.519 ± 0.07
10 | SIQMNCILLLVI | 0.211 ± 0.041 | 0.224 ± 0.021 | 0.213 ± 0.026 | 0.339 ± 0.012 | 0.188 ± 0.032 | 0.186 ± 0.024 | 0.299 ± 0.028 | 0.298 ± 0.058
11 | SKPFPRHIFSLH | 0.674 ± 0.022 | 0.737 ± 0.027 | 0.663 ± 0.026 | 0.7348 ± 0.0039 | 0.481 ± 0.03 | 0.4981 ± 0.0046 | 0.644 ± 0.012 | 0.503 ± 0.046
12 | SLCWSYVWVSCP | 0.264 ± 0.035 | 0.302 ± 0.007 | 0.247 ± 0.024 | 0.375 ± 0.0093 | 0.21 ± 0.0079 | 0.241 ± 0.022 | 0.343 ± 0.0047 | 0.334 ± 0.018
13 | SLFERLSPVLCF | 0.249 ± 0.037 | 0.2784 ± 0.0027 | 0.23 ± 0.024 | 0.3548 ± 0.00059 | 0.214 ± 0.008 | 0.224 ± 0.017 | 0.30185 ± 0.00011 | 0.308 ± 0.011
14 | SLFVLLVSALLH | 0.173 ± 0.029 | 0.32 ± 0.025 | 0.212 ± 0.025 | 0.38251 ± 0.0002 | 0.18 ± 0.0094 | 0.194 ± 0.033 | 0.328 ± 0.011 | 0.345 ± 0.02
15 | SLGRYVSFLFVV | 0.433 ± 0.02 | 0.6623 ± 0.0014 | 0.565 ± 0.024 | 0.668 ± 0.024 | 0.106 ± 0.0061 | 0.0996 ± 0.016 | 0.153 ± 0.019 | 0.202 ± 0.004
